Assays:
GST-hMSTN 121-220aa = target: T1, GST-hMSTN 121-220aa (human, UniProt A1C2U3 121-220 (Pongo pygmaeus entry)); test: Western blot
T1 construct: not shown: GST tag of pGEX4.1 vector
T1 sequence: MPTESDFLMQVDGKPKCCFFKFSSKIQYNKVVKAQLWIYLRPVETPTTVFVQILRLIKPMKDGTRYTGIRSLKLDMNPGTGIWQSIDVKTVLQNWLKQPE

GST-hMSTN 101-200aa = target: T2, GST-hMSTN 101-200aa (human, UniProt A1C2U3 101-200 (Pongo pygmaeus entry)); test: Western blot
T2 construct: not shown: GST tag of pGEX4.1 vector
T2 sequence: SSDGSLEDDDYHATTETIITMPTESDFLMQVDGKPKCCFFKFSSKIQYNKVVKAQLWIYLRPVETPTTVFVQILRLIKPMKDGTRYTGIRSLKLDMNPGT

GST-hMSTN 141-241aa = target: T3, GST-hMSTN 141-241aa (human, UniProt A1C2U3 141-241 (Pongo pygmaeus entry)); test: Western blot
T3 construct: not shown: GST tag of pGEX4.1 vector
T3 sequence: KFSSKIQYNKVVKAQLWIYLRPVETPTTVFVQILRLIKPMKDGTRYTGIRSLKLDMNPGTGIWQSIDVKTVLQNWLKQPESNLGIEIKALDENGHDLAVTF

mouse latent myostatin [1] = target: T4, mouse latent myostatin (mouse, UniProt O08689 26-267; O08689 268-376); test: SPR affinity condition pH7.4 37C; pH 7.4
T4 sequence 1: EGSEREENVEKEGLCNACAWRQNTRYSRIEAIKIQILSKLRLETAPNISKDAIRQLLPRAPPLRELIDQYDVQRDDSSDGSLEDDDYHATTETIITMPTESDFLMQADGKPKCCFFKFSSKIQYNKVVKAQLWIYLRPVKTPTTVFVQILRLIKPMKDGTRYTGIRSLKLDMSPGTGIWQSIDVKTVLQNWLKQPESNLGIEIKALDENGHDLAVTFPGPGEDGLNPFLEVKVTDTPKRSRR
T4 sequence 2: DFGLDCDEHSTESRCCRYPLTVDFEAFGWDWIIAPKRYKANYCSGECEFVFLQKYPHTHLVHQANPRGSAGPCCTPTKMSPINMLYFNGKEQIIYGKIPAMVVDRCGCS

human latent myostatin [2] = target: T5, human latent myostatin (human, UniProt O14793 25-266; O14793 267-375); test: SPR affinity condition pH7.4 37C; pH 7.4
T5 construct: non-covalent complex of two propeptides and the mature homodimer; also called human myostatin latent form
T5 sequence 1: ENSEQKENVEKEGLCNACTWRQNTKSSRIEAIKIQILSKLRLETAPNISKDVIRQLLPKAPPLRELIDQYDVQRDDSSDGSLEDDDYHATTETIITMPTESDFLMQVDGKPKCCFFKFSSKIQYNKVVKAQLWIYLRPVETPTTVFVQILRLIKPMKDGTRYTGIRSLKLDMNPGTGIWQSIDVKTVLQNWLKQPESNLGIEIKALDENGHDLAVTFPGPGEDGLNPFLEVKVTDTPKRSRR
T5 sequence 2: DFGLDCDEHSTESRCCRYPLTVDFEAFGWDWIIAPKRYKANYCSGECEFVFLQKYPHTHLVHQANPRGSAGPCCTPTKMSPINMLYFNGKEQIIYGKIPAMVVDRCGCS

[3] = target: T6, cynomolgus monkey latent myostatin (cynomolgus monkey, UniProt Q95J86 25-266; Q95J86 267-375, limits assumed); test: SPR affinity condition pH7.4 37C; pH 7.4
T6 construct: also called cyno latent myostatin
T6 sequence 1: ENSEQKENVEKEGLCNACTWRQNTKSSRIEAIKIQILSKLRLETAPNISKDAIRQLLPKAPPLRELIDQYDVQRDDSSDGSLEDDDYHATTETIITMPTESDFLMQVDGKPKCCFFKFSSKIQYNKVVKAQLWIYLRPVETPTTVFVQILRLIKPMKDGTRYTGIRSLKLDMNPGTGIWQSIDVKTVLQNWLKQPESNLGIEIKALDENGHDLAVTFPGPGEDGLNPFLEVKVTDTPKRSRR
T6 sequence 2: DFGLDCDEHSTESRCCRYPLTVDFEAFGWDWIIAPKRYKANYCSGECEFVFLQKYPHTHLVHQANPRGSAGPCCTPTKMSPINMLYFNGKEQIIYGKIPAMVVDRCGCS

mouse latent myostatin [4] = target: T4, mouse latent myostatin; test: SPR affinity condition pH5.8 37C; pH 5.8
human latent myostatin [5] = target: T5, human latent myostatin; test: SPR affinity condition pH5.8 37C; pH 5.8
[6] = target: T6, cynomolgus monkey latent myostatin; test: SPR affinity condition pH5.8 37C; pH 5.8
human latent myostatin [7] = target: T5, human latent myostatin; test: SPR 37C pH7.4
mouse latent myostatin [8] = target: T4, mouse latent myostatin; test: SPR avidity condition pH7.4 37C; pH 7.4
human latent myostatin [9] = target: T5, human latent myostatin; test: SPR avidity condition pH7.4 37C; pH 7.4
[10] = target: T6, cynomolgus monkey latent myostatin; test: SPR avidity condition pH7.4 37C; pH 7.4
mouse latent myostatin [11] = target: T4, mouse latent myostatin; test: SPR avidity condition pH5.8 37C; pH 5.8
human latent myostatin [12] = target: T5, human latent myostatin; test: SPR avidity condition pH5.8 37C; pH 5.8
[13] = target: T6, cynomolgus monkey latent myostatin; test: SPR avidity condition pH5.8 37C; pH 5.8
human latent myostatin [14] = target: T5, human latent myostatin; test: SPR, dissociation phase at pH5.8
mouse latent myostatin [15] = target: T4, mouse latent myostatin; test: SPR affinity condition pH7.4 37C
human latent myostatin [16] = target: T5, human latent myostatin; test: SPR affinity condition pH7.4 37C
[17] = target: T6, cynomolgus monkey latent myostatin; test: SPR affinity condition pH7.4 37C

B1: MST1032 (as used in Example 26) (antibody, V domains shown)
VH: QSLEESGGRLVTPGGSLTVTCRVSGIDLSSYDISWVRQAPGKGLEWIGIISYAGSTYYASWAKGRFTISKTSTTVDLKMTSLTTEDTATYFCARGVPAYSTGGDLWGPGTLVTVSS
VL: AQVLTQTASSVSAAVGGTVTINCQSSQSVYDNNWLSWFQQKPGQPPKLLIYWASTLASGVPSRFKGSGSGTQFTLTISDLECDDAATYYCAGGYGGGLYAFGGGTKVEIK
binding result (GST-hMSTN 121-220aa): no binding
binding result (GST-hMSTN 101-200aa): no binding
binding result (GST-hMSTN 141-241aa): no binding

B2: MS_M103205H000-SG1/M103202L000-SK1 (antibody, human IgG1, kappa, V domains shown)
VH: QVTLKESGPVLVKPTETLTLTCTVSGIDLSSYDISWVRQAPGKGLEWVGIISYAGSTYYASWAKGRLTISKDTSKNQVVLTMTNMDPVDTATYYCARGVPAYSTGGDLWGQGTLVTVSS
VL: DIVMTQSPATLSLSPGERATLSCQSSQSVYDNNWLSWFQQKPGQPPKLLIYWASTLASGVPSRFSGSGSGTDFTLTISSLQPEDAATYYCAGGYGGGLYAFGQGTKVEIKR
notes: humanized; also called MS1032LO00-SG1; Ab001
Kd (mouse latent myostatin [1]): 0.122 nM
koff (mouse latent myostatin [1]): 0.00016 s⁻¹
kon (mouse latent myostatin [1]): 1.31e+06 M⁻¹ s⁻¹
Kd (human latent myostatin [2]): 0.23 nM
koff (human latent myostatin [2]): 0.000245 s⁻¹
kon (human latent myostatin [2]): 1.07e+06 M⁻¹ s⁻¹
Kd [3]: 0.209 nM
koff [3]: 0.000213 s⁻¹
kon [3]: 1.02e+06 M⁻¹ s⁻¹
Kd (mouse latent myostatin [4]): 0.0438 nM
koff (mouse latent myostatin [4]): 7.08e-05 s⁻¹
kon (mouse latent myostatin [4]): 1.62e+06 M⁻¹ s⁻¹
Kd (human latent myostatin [5]): 0.215 nM
koff (human latent myostatin [5]): 0.000235 s⁻¹
kon (human latent myostatin [5]): 1.09e+06 M⁻¹ s⁻¹
Kd [6]: 0.139 nM
koff [6]: 0.000196 s⁻¹
kon [6]: 1.41e+06 M⁻¹ s⁻¹
Kd (human latent myostatin [7]): 0.075 nM
koff (human latent myostatin [7]): 9.52e-05 s⁻¹
kon (human latent myostatin [7]): 1.27e+06 M⁻¹ s⁻¹
Kd (mouse latent myostatin [8]): 0.0471 nM
koff (mouse latent myostatin [8]): 7.18e-05 s⁻¹
kon (mouse latent myostatin [8]): 1.52e+06 M⁻¹ s⁻¹
Kd (human latent myostatin [9]): 0.075 nM
koff (human latent myostatin [9]): 9.52e-05 s⁻¹
kon (human latent myostatin [9]): 1.27e+06 M⁻¹ s⁻¹
Kd [10]: 0.0666 nM
koff [10]: 8.08e-05 s⁻¹
kon [10]: 1.21e+06 M⁻¹ s⁻¹
Kd (mouse latent myostatin [11]): 0.0087 nM
koff (mouse latent myostatin [11]): 2.02e-05 s⁻¹
kon (mouse latent myostatin [11]): 2.32e+06 M⁻¹ s⁻¹
Kd (human latent myostatin [12]): 0.0797 nM
koff (human latent myostatin [12]): 0.000128 s⁻¹
kon (human latent myostatin [12]): 1.6e+06 M⁻¹ s⁻¹
Kd [13]: 0.00883 nM
koff [13]: 1.58e-05 s⁻¹
kon [13]: 1.79e+06 M⁻¹ s⁻¹
koff (human latent myostatin [14]): 2.92e-05 s⁻¹

B3: MS_M103205H714-SG1/M103202L861-SK1 (antibody, human IgG1, kappa, V domains shown)
VH: QVTLKESGPVLVKPTETLTLTCTVSGIDLSHTDISWVRQAPGKGLEWVGIISYAGSTYYASWAKGRLTISKDTSKNQVVLTMTNMDPVDTATYYCARGVPAYSHGGDLWGQGTLVTVSS
VL: DIVMTQSPATLSLSPGERATLSCTSSQSVYHNNWLSWFQQKPGQPPKLLIYWASTLAYGVPSRFSGSGSGTDFTLTISSLQPEDAATYYCAGGYGGGRYAFGQGTKVEIKR
notes: also called MS1032LO01-SG1
Kd (mouse latent myostatin [15]): 0.713 nM
koff (mouse latent myostatin [15]): 0.00107 s⁻¹
kon (mouse latent myostatin [15]): 1.5e+06 M⁻¹ s⁻¹
Kd (human latent myostatin [16]): 0.788 nM
koff (human latent myostatin [16]): 0.00129 s⁻¹
kon (human latent myostatin [16]): 1.64e+06 M⁻¹ s⁻¹
Kd [17]: 0.954 nM
koff [17]: 0.0011 s⁻¹
kon [17]: 1.15e+06 M⁻¹ s⁻¹
Kd (mouse latent myostatin [8]): 0.149 nM
koff (mouse latent myostatin [8]): 0.000217 s⁻¹
kon (mouse latent myostatin [8]): 1.45e+06 M⁻¹ s⁻¹
Kd [10]: 0.165 nM
koff [10]: 0.000197 s⁻¹
kon [10]: 1.19e+06 M⁻¹ s⁻¹
Kd (mouse latent myostatin [11]): 6.15 nM
koff (mouse latent myostatin [11]): 0.00625 s⁻¹
kon (mouse latent myostatin [11]): 1.02e+06 M⁻¹ s⁻¹
Kd (human latent myostatin [12]): 19.5 nM
koff (human latent myostatin [12]): 0.0242 s⁻¹
kon (human latent myostatin [12]): 1.22e+06 M⁻¹ s⁻¹
Kd [13]: 8.9 nM
koff [13]: 0.0068 s⁻¹
kon [13]: 764000 M⁻¹ s⁻¹
